Bridge positions count the residues as written; N and C are the ends. Square brackets hold non-standard residues; d marks the D form. Ends that are not written are not given here.
B1: bifunctional hormone of SEQ ID NO: 39 (peptide)
peptide: Ac-H[dF]RWGRRSSCFGGRMDRIGAQSGLGCNSFRY-NH2
modifications: disulfide 10-26
SMILES: CC[C@H](C)[C@@H]1NC(=O)[C@H](CCCNC(=N)N)NC(=O)[C@H](CC(=O)O)NC(=O)[C@H](CCSC)NC(=O)[C@H](CCCNC(=N)N)NC(=O)CNC(=O)CNC(=O)[C@H](Cc2ccccc2)NC(=O)[C@@H](NC(=O)[C@H](CO)NC(=O)[C@H](CO)NC(=O)[C@H](CCCNC(=N)N)NC(=O)[C@H](CCCNC(=N)N)NC(=O)CNC(=O)[C@H](Cc2c[nH]c3ccccc23)NC(=O)[C@H](CCCNC(=N)N)NC(=O)[C@@H](Cc2ccccc2)NC(=O)[C@H](Cc2c[nH]cn2)NC(C)=O)CSSC[C@@H](C(=O)N[C@@H](CC(N)=O)C(=O)N[C@@H](CO)C(=O)N[C@@H](Cc2ccccc2)C(=O)N[C@@H](CCCNC(=N)N)C(=O)N[C@@H](Cc2ccc(O)cc2)C(N)=O)NC(=O)CNC(=O)[C@H](CC(C)C)NC(=O)CNC(=O)[C@H](CO)NC(=O)[C@H](CCC(N)=O)NC(=O)[C@H](C)NC(=O)CNC1=O
B2: bifunctional hormone of SEQ ID NO: 38 (peptide)
peptide: Ac-HFRWGRRSSCFGGRMDRIGAQSGLGCNSFRY-NH2
modifications: disulfide 10-26
SMILES: CC[C@H](C)[C@@H]1NC(=O)[C@H](CCCNC(=N)N)NC(=O)[C@H](CC(=O)O)NC(=O)[C@H](CCSC)NC(=O)[C@H](CCCNC(=N)N)NC(=O)CNC(=O)CNC(=O)[C@H](Cc2ccccc2)NC(=O)[C@@H](NC(=O)[C@H](CO)NC(=O)[C@H](CO)NC(=O)[C@H](CCCNC(=N)N)NC(=O)[C@H](CCCNC(=N)N)NC(=O)CNC(=O)[C@H](Cc2c[nH]c3ccccc23)NC(=O)[C@H](CCCNC(=N)N)NC(=O)[C@H](Cc2ccccc2)NC(=O)[C@H](Cc2c[nH]cn2)NC(C)=O)CSSC[C@@H](C(=O)N[C@@H](CC(N)=O)C(=O)N[C@@H](CO)C(=O)N[C@@H](Cc2ccccc2)C(=O)N[C@@H](CCCNC(=N)N)C(=O)N[C@@H](Cc2ccc(O)cc2)C(N)=O)NC(=O)CNC(=O)[C@H](CC(C)C)NC(=O)CNC(=O)[C@H](CO)NC(=O)[C@H](CCC(N)=O)NC(=O)[C@H](C)NC(=O)CNC1=O
B3: bifunctional hormone of SEQ ID NO: 36 (peptide)
peptide: MEHFRWGRRSSCFGGRMDRIGAQSGLGCNSFRY-NH2
modifications: disulfide 12-28; N-terminus assumed
SMILES: CC[C@H](C)[C@@H]1NC(=O)[C@H](CCCNC(=N)N)NC(=O)[C@H](CC(=O)O)NC(=O)[C@H](CCSC)NC(=O)[C@H](CCCNC(=N)N)NC(=O)CNC(=O)CNC(=O)[C@H](Cc2ccccc2)NC(=O)[C@@H](NC(=O)[C@H](CO)NC(=O)[C@H](CO)NC(=O)[C@H](CCCNC(=N)N)NC(=O)[C@H](CCCNC(=N)N)NC(=O)CNC(=O)[C@H](Cc2c[nH]c3ccccc23)NC(=O)[C@H](CCCNC(=N)N)NC(=O)[C@H](Cc2ccccc2)NC(=O)[C@H](Cc2c[nH]cn2)NC(=O)[C@H](CCC(=O)O)NC(=O)[C@@H](N)CCSC)CSSC[C@@H](C(=O)N[C@@H](CC(N)=O)C(=O)N[C@@H](CO)C(=O)N[C@@H](Cc2ccccc2)C(=O)N[C@@H](CCCNC(=N)N)C(=O)N[C@@H](Cc2ccc(O)cc2)C(N)=O)NC(=O)CNC(=O)[C@H](CC(C)C)NC(=O)CNC(=O)[C@H](CO)NC(=O)[C@H](CCC(N)=O)NC(=O)[C@H](C)NC(=O)CNC1=O
B4: bifunctional hormone of SEQ ID NO: 42 (peptide)
peptide: Ac-EH[dF]RWGRRSSCFGGRMDRIGAQSGLGCNSFRY-NH2
modifications: disulfide 11-27
SMILES: CC[C@H](C)[C@@H]1NC(=O)[C@H](CCCNC(=N)N)NC(=O)[C@H](CC(=O)O)NC(=O)[C@H](CCSC)NC(=O)[C@H](CCCNC(=N)N)NC(=O)CNC(=O)CNC(=O)[C@H](Cc2ccccc2)NC(=O)[C@@H](NC(=O)[C@H](CO)NC(=O)[C@H](CO)NC(=O)[C@H](CCCNC(=N)N)NC(=O)[C@H](CCCNC(=N)N)NC(=O)CNC(=O)[C@H](Cc2c[nH]c3ccccc23)NC(=O)[C@H](CCCNC(=N)N)NC(=O)[C@@H](Cc2ccccc2)NC(=O)[C@H](Cc2c[nH]cn2)NC(=O)[C@H](CCC(=O)O)NC(C)=O)CSSC[C@@H](C(=O)N[C@@H](CC(N)=O)C(=O)N[C@@H](CO)C(=O)N[C@@H](Cc2ccccc2)C(=O)N[C@@H](CCCNC(=N)N)C(=O)N[C@@H](Cc2ccc(O)cc2)C(N)=O)NC(=O)CNC(=O)[C@H](CC(C)C)NC(=O)CNC(=O)[C@H](CO)NC(=O)[C@H](CCC(N)=O)NC(=O)[C@H](C)NC(=O)CNC1=O
B5: bifunctional hormone of SEQ ID NO: 31 (peptide)
peptide: Ac-H[dF]RWGKPMCHFGGRMDRISCYR-NH2
modifications: disulfide 9-20
SMILES: CC[C@H](C)[C@@H]1NC(=O)[C@H](CCCNC(=N)N)NC(=O)[C@H](CC(=O)O)NC(=O)[C@H](CCSC)NC(=O)[C@H](CCCNC(=N)N)NC(=O)CNC(=O)CNC(=O)[C@H](Cc2ccccc2)NC(=O)[C@H](Cc2c[nH]cn2)NC(=O)[C@@H](NC(=O)[C@H](CCSC)NC(=O)[C@@H]2CCCN2C(=O)[C@H](CCCCN)NC(=O)CNC(=O)[C@H](Cc2c[nH]c3ccccc23)NC(=O)[C@H](CCCNC(=N)N)NC(=O)[C@@H](Cc2ccccc2)NC(=O)[C@H](Cc2c[nH]cn2)NC(C)=O)CSSC[C@@H](C(=O)N[C@@H](Cc2ccc(O)cc2)C(=O)N[C@@H](CCCNC(=N)N)C(N)=O)NC(=O)[C@H](CO)NC1=O
B6: bifunctional hormone of SEQ ID NO: 40 (peptide)
peptide: SLRRSSCFGGRMDRIGAQSGLGCNSFRYHXRW
modifications: disulfide bridge between C residues at positions 7 and 23; D-Phe (f) at position 30; C-terminal amidation (NH2)

target: ANP receptor (on ANP receptor-expressing LLC-PK1 cells); assay: cell-based or functional assay

EC50 on the production of cGMP (LLC-PK1 cells) [nM] | Binder
52.1 | B1
6.9 | B2
33.1 | B3
502 | B4
74.3 | B5
7000 | B6

target: MCR1 receptor (on MCR1 receptor-expressing B16-F1 cells) (UniProt Q01727 1-315); assay: cell-based or functional assay
Sequence (Q01727 whole entry): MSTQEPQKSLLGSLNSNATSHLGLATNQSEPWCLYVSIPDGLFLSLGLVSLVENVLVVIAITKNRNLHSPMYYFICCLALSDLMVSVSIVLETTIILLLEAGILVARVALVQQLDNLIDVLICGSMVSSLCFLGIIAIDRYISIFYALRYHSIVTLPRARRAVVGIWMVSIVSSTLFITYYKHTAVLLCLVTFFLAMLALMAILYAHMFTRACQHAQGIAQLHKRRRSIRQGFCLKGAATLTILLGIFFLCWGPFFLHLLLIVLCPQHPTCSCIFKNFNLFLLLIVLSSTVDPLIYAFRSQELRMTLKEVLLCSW

EC50 on the production of cAMP (BC16-F1 cells) [nM] | Binder
11.5 | B1
259 | B2
49.1 | B3
6 | B4
20.9 | B5
9.8 | B6
